US20200308299A1, “ANTI-GPC-1 ANTIBODY” (National University Corporation Kochi University, priority 2017, published 2020)

B1: clone 01a017: anti-human Glypican-1 antibody, heavy chain SEQ ID NO: 138, light chain SEQ ID NO: 140 (antibody)
heavy: MKHLWFFLLLVAAPRWVLSEVQLQQSGGELVRPGTSVKMSCKAAGYTFTNYWIGWVKQRPGHGLEWIGDLYPGGGYTHYNEKFKGKATLTADTSSSTAYMQLSSLTSEDSAIYYCARERVYFDGSRYFDVWGAGTTVTVSSAKTTAPSVYPLAPVCGDTTGSSVTLGCLVKGYFPEPVTLTWNSGSLSSGVHTFPAVLQSDLYTLSSSVTVTSSTWPSQSITCNVAHPASSTKVDKKIEPRGPTIKPCPPCKCPAPNLLGGPSVFIFPPKIKDVLMISLSPIVTCVVVDVSEDDPDVQISWFVNNVEVHTAQTQTHREDYNSTLRVVSALPIQHQDWMSGKEFKCKVNNKDLPAPIERTISKPKGSVRAPQVYVLPPPEEEMTKKQVTLTCMVTDFMPEDIYVEWTNNGKTELNYKNTEPVLDSDGSYFMYSKLRVEKKNWVERNSYSCSVVHEGLHNHHTTKSFSRTPGK
light: MRLLAQLLGLLMLWVPGSSGSIVMTQTPKFLPVSAGDRVTMTCKASQSVGNNVAWYQQKPGQSPKLLIYYASNRYTGVPDRFTGSGSGTDFTFTISSVQVEDLAVYFCQQHYSSPWTFGGGTKLEIKRADAAPTVSIFPPSSEQLTSGGASVVCFLNNFYPKDINVKWKIDGSERQNGVLNSWTDQDSKDSTYSMSSTLTLTKDEYERHNSYTCEATHKTSTSPIVKSFNRNEC
B2: clone 01a042: anti-human Glypican-1 antibody, heavy chain SEQ ID NO: 162, light chain SEQ ID NO: 164 (antibody)
heavy: MKHLWFFLLLVAAPRWVLSQVQLQQPGAELAKPGASVKMSCKASGYTFTRYWMHWVKQRPGQGLEWIGYINPSSGYTEYNQKFKDKATLTADKSSSTAYMQLSSLTSEDSAVYYCVRLGDYSYYFDYWGQGTTLTVSSAKTTAPSVYPLAPVCGDTTGSSVTLGCLVKGYFPEPVTLTWNSGSLSSGVHTFPAVLQSDLYTLSSSVTVTSSTWPSQSITCNVAHPASSTKVDKKIEPRGPTIKPCPPCKCPAPNLLGGPSVFIFPPKIKDVLMISLSPIVTCVVVDVSEDDPDVQISWFVNNVEVHTAQTQTHREDYNSTLRVVSALPIQHQDWMSGKEFKCKVNNKDLPAPIERTISKPKGSVRAPQVYVLPPPEEEMTKKQVTLTCMVTDFMPEDIYVEWTNNGKTELNYKNTEPVLDSDGSYFMYSKLRVEKKNWVERNSYSCSVVHEGLHNHHTTKSFSRTPGK
light: MRLLAQLLGLLMLWVPGSSGDVVMTQTPLSLPVSLGDQASISCRSSQSIVHSNGNTYLEWYLQKPGQSPKLLIYKVSNRFSGVPDRFSGSGSGTDFTLKISRVEAEDLGVYYCFQGSHVPWTFGGGTKLELKRADAAPTVSIFPPSSEQLTSGGASVVCFLNNFYPKDINVKWKIDGSERQNGVLNSWTDQDSKDSTYSMSSTLTLTKDEYERHNSYTCEATHKTSTSPIVKSFNRNEC

What was measured:
TE14 cells = experiment: ADC assay combining anti-GPC-1 antibody and MMAF binding secondary antibody, TE14 cells; type: cell-based; conditions: primary antibody plus MMAF secondary antibody
Method: FIG. 1 depicts a schematic diagram of an ADC used in an assay. This Example used a secondary antibody (MORADEC) to the anti-GPC1 antibody made in Example 1, to which an anticancer agent (MMAF) was bound via a linker.
2000 TE14 cells were added to a 96-well plate at 80 μl. The cells were cultured overnight at 37° C. in a 5% CO2 incubator. The next day, 10 μl of an anticancer agent bound secondary antibody and 10 μl of a primary antibody concentrated 10-fold relative to the final concentration was added to each well, so that the total amount was 100 μl. The cells were cultured for 6 days at 37° C. in a 5% CO2 incubator. The cell viability was measured by using a CellTiter-Glo Luminescent Cell Viability Assay reagent to detect the amount of ATP. RPMI1640+10% FBS+1% PS was used as the medium. The final concentrations of the primary antibody were 0, 0.004, 0.0156, 0.0625, 0.25, and 1.0 nM. 2 μg/ml of Fab-aMFc-CL-MMAF (model number: AM202AF-50, Moradec) was used as the secondary antibody.

DU145 cells = experiment: ADC assay combining anti-GPC-1 antibody and MMAF binding secondary antibody in DU145 cells; type: cell-based; conditions: primary antibody plus MMAF secondary antibody, 3 days
Method: 2000 DU145 cells were added to a 96-well plate at 80 μl. The cells were cultured overnight at 37° C. in a 5% CO2 incubator. The next day, 10 μl each of anticancer agent binding secondary antibody (2 μg/ml) and primary antibody concentrated 10-fold relative to the final concentration was added to each well, so that the total amount was 100 μl. The cells were cultured for 3 days at 37° C. in a 5% CO2 incubator. The cell viability was measured by using a CellTiter-Glo Luminescent Cell Viability Assay reagent to detect the amount of ATP. RPMI1640+10% FBS+1% PS was used as the medium. The final concentrations of the primary antibodies were […]. 2 μg/ml of Fab-aMFc-CL-MMAF (model number AM202AF-50, Moradec) was used as the secondary antibody. The EC50 value was analyzed with GraphPad Prism 6. The same experiment was conducted using 4000 MDA-MB231 cells as the control.

Row | EC50 values against TE14 cells (TE14 cells) | EC50 values against DU145 cells (DU145 cells) | Molecule
1 | excellent EC50 values | excellent EC50 values | B1
2 | excellent EC50 values | excellent EC50 values | B2
